Target: T1, Corticotropin Releasing Factor receptor 2 (CRF2) (human (endogenous in HT-29)) (UniProt Q13324)
T1 sequence: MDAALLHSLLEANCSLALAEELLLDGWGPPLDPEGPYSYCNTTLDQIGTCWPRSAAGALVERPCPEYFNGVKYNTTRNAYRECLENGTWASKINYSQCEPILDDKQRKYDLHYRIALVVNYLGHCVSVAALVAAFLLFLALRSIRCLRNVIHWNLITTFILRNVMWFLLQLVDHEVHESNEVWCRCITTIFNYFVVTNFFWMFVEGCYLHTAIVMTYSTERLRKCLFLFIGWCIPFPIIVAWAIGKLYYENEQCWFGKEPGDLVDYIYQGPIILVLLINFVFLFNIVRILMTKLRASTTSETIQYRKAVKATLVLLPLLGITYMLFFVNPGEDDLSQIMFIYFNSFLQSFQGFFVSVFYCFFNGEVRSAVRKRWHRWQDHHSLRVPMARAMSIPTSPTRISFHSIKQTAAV

FTLSLDVPTNIMNLLFNIAKAKNLRAQAAANAHLMAQI [Urocortin 3 (Ucn3)]
cAMP production by HT-29 cells treated with 1 µM Ucn3 (ELISA kit); completely reversed by 1 µM astressin2b (A2b) (pM of cAMP/10^5 cells): 2.4

IVLSLDVPIGLLQILLEQARARAAREQATTNARILARVGHC [Urocortin 2 (Ucn2)]
cAMP production by HT-29 cells treated with 1 µM Ucn2 (ELISA kit); completely reversed by 1 µM astressin2b (A2b) (pM of cAMP/10^5 cells): 1

SEEPPISLDLTFHLLREVLEMARAEQLAQQAHSNRKLMEIIGK [Corticotropin releasing factor (CRF)]
cAMP production by HT-29 cells treated with 1 µM CRF (ELISA kit); completely reversed by 1 µM astressin2b (A2b) (pM of cAMP/10^5 cells): 0.5

Source: PMC3832608
